Assay results reported in the RNAGym collection of RNA variant scans (doi:10.1093/molbev/msab373).

B1: Azoarcus group I ribozyme (parent)
chain: GUGCCUUGCGCCGGGAAACCACGCAAGGGAUGGUGUCAAAUUCGGCGAAACCUAAGCGCCCGCCCGGGCGUAUGGCAACGCCGAGCCAAGCUUCGGCGCCUGCGCCGAUGAAGGUGUAGAGACUAGACGGCACCCACCUAAGGCAAACGCUAUGGUGAAGGCAUAGUCCAGGGAGUGGCGAAAGUCACACAAACCGG

Variants of: B1
Assay: reverse-splicing fitness (ratio to wild type); higher = more active; in vitro selection; Mg2+ level not given
Method in brief: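 An in vitro group I ribozyme library with randomized positions was T7-transcribed and gel-purified. In triplicate, 10 pmol RNA in EPPS pH 7.5 was reacted with 50 pmoles of a 30-nt RNA substrate for 1 h at 37 °C across several added MgCl2 levels (1–48 mM), then stopped with EDTA. Products were reverse transcribed from a substrate-complementary primer, PCR-amplified and sequenced (HiSeq 4000). Fitness is a variant's read proportion after selection over that before, normalised to wild type.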

Variant | reverse-splicing fitness
C82G A111C A120G A145G C150U C169U U176A | 0.0141
C82G A111C A120G A145G C150U C169U U176C | 0.0145
C82G A111C A120G A145G C150U C169U U176G | 0.00501
C82G A111C A120G A145G C150U U176A | 0.0105
C82G A111C A120G A145G C150U U176C | 0.0183
C82G A111C A120G A145G C150U U176G | 0.00692
C82G A111C A120G A145G C169A | 0.0114
C82G A111C A120G A145G C169A U176A | 0.0209
C82G A111C A120G A145G C169A U176C | 0.0271
C82G A111C A120G A145G C169A U176G | 0.00447
C82G A111C A120G A145G C169G | 0.0143
C82G A111C A120G A145G C169G U176A | 0.0188
C82G A111C A120G A145G C169G U176C | 0.0288
C82G A111C A120G A145G C169G U176G | 0.00514
C82G A111C A120G A145G C169U | 0.0104
C82G A111C A120G A145G C169U U176A | 0.0161
C82G A111C A120G A145G C169U U176C | 0.0145
C82G A111C A120G A145G C169U U176G | 0.00423
C82G A111C A120G A145G U176A | 0.017
C82G A111C A120G A145G U176C | 0.0204
C82G A111C A120G A145G U176G | 0.00675

Variant | reverse-splicing fitness
C82G A111C A120G A145U | 0.0164
C82G A111C A120G A145U C150A | 0.00783
C82G A111C A120G A145U C150A C169A | 0.00884
C82G A111C A120G A145U C150A C169A U176A | 0.0128
C82G A111C A120G A145U C150A C169A U176C | 0.0105
C82G A111C A120G A145U C150A C169A U176G | 0.00581
C82G A111C A120G A145U C150A C169G | 0.00764
C82G A111C A120G A145U C150A C169G U176A | 0.0126
C82G A111C A120G A145U C150A C169G U176C | 0.0153
C82G A111C A120G A145U C150A C169G U176G | 0.00522
C82G A111C A120G A145U C150A C169U | 0.00666
C82G A111C A120G A145U C150A C169U U176A | 0.0169
C82G A111C A120G A145U C150A C169U U176C | 0.0124
C82G A111C A120G A145U C150A C169U U176G | 0.00547
C82G A111C A120G A145U C150A U176A | 0.0121
C82G A111C A120G A145U C150A U176C | 0.0172
C82G A111C A120G A145U C150A U176G | 0.00582
C82G A111C A120G A145U C150G | 0.00698
C82G A111C A120G A145U C150G C169A | 0.00965
C82G A111C A120G A145U C150G C169A U176A | 0.00957
C82G A111C A120G A145U C150G C169A U176C | 0.0101

Variant | reverse-splicing fitness
C82G A111C A120G A145U C150G C169A U176G | 0.00496
C82G A111C A120G A145U C150G C169G | 0.00781
C82G A111C A120G A145U C150G C169G U176A | 0.0071
C82G A111C A120G A145U C150G C169G U176C | 0.00521
C82G A111C A120G A145U C150G C169G U176G | 0.00512
C82G A111C A120G A145U C150G C169U | 0.0085
C82G A111C A120G A145U C150G C169U U176A | 0.00847
C82G A111C A120G A145U C150G C169U U176C | 0.0118
C82G A111C A120G A145U C150G C169U U176G | 0.00536
C82G A111C A120G A145U C150G U176A | 0.00814
C82G A111C A120G A145U C150G U176C | 0.015
C82G A111C A120G A145U C150G U176G | 0.00375
C82G A111C A120G A145U C150U | 0.0124
C82G A111C A120G A145U C150U C169A | 0.0101
C82G A111C A120G A145U C150U C169A U176A | 0.0109
C82G A111C A120G A145U C150U C169A U176C | 0.0109
C82G A111C A120G A145U C150U C169A U176G | 0.006
C82G A111C A120G A145U C150U C169G | 0.0113
C82G A111C A120G A145U C150U C169G U176A | 0.0127
C82G A111C A120G A145U C150U C169G U176C | 0.0134
C82G A111C A120G A145U C150U C169G U176G | 0.00519

Variant | reverse-splicing fitness
C82G A111C A120G A145U C150U C169U | 0.00896
C82G A111C A120G A145U C150U C169U U176A | 0.0143
C82G A111C A120G A145U C150U C169U U176C | 0.0139
C82G A111C A120G A145U C150U C169U U176G | 0.00531
C82G A111C A120G A145U C150U U176A | 0.0115
C82G A111C A120G A145U C150U U176C | 0.0179
C82G A111C A120G A145U C150U U176G | 0.00613
C82G A111C A120G A145U C169A | 0.00975
C82G A111C A120G A145U C169A U176A | 0.0115
C82G A111C A120G A145U C169A U176C | 0.00997
C82G A111C A120G A145U C169A U176G | 0.00439
C82G A111C A120G A145U C169G | 0.0132
C82G A111C A120G A145U C169G U176A | 0.0117
C82G A111C A120G A145U C169G U176C | 0.0132
C82G A111C A120G A145U C169G U176G | 0.00458
C82G A111C A120G A145U C169U | 0.0104
C82G A111C A120G A145U C169U U176A | 0.0144
C82G A111C A120G A145U C169U U176C | 0.014
C82G A111C A120G A145U C169U U176G | 0.00395
C82G A111C A120G A145U U176A | 0.016
